Results as given in US20030186844A1 (MERCK, published 2003).
Where no end group is shown, it is not given here. [ ]: non-standard residue; d: D form. The star is where a group is joined. Octanoyl = CCCCCCCC(=O)*; Dap = NC[C@H](N)C(=O)O

B1: compound 12 (peptide)
peptide: GSXFLSPEHQRVQQRKESKKPPAKLQPR
modifications: X^b at position 3: 2,3-di-amino-propionic acid in place of Ser3, its beta-amino group acylated with n-octanoic acid
B2: compound 21 (peptide)
peptide: GSS(Octanoyl)FL-NH2
modifications: N-terminus assumed
SMILES: CCCCCCCC(=O)OC[C@H](NC(=O)[C@H](CO)NC(=O)CN)C(=O)N[C@@H](Cc1ccccc1)C(=O)N[C@@H](CC(C)C)C(N)=O
B3: compound 18 (peptide)
peptide: GSS(Octanoyl)FLSPEHQRVQQRKESKKPPA-NH2
modifications: N-terminus assumed
SMILES: CCCCCCCC(=O)OC[C@H](NC(=O)[C@H](CO)NC(=O)CN)C(=O)N[C@@H](Cc1ccccc1)C(=O)N[C@@H](CC(C)C)C(=O)N[C@@H](CO)C(=O)N1CCC[C@H]1C(=O)N[C@@H](CCC(=O)O)C(=O)N[C@@H](Cc1c[nH]cn1)C(=O)N[C@@H](CCC(N)=O)C(=O)N[C@@H](CCCNC(=N)N)C(=O)N[C@H](C(=O)N[C@@H](CCC(N)=O)C(=O)N[C@@H](CCC(N)=O)C(=O)N[C@@H](CCCNC(=N)N)C(=O)N[C@@H](CCCCN)C(=O)N[C@@H](CCC(=O)O)C(=O)N[C@@H](CO)C(=O)N[C@@H](CCCCN)C(=O)N[C@@H](CCCCN)C(=O)N1CCC[C@H]1C(=O)N1CCC[C@H]1C(=O)N[C@@H](C)C(N)=O)C(C)C
B4: compound 19 (peptide)
peptide: GSS(Octanoyl)FLSPEHQRVQQRKES-NH2
modifications: N-terminus assumed
SMILES: CCCCCCCC(=O)OC[C@H](NC(=O)[C@H](CO)NC(=O)CN)C(=O)N[C@@H](Cc1ccccc1)C(=O)N[C@@H](CC(C)C)C(=O)N[C@@H](CO)C(=O)N1CCC[C@H]1C(=O)N[C@@H](CCC(=O)O)C(=O)N[C@@H](Cc1c[nH]cn1)C(=O)N[C@@H](CCC(N)=O)C(=O)N[C@@H](CCCNC(=N)N)C(=O)N[C@H](C(=O)N[C@@H](CCC(N)=O)C(=O)N[C@@H](CCC(N)=O)C(=O)N[C@@H](CCCNC(=N)N)C(=O)N[C@@H](CCCCN)C(=O)N[C@@H](CCC(=O)O)C(=O)N[C@@H](CO)C(N)=O)C(C)C

Molecular target: T1, human GHS receptor 1a (human, UniProt Q92847 1-366)
T1 sequence (Q92847 whole entry): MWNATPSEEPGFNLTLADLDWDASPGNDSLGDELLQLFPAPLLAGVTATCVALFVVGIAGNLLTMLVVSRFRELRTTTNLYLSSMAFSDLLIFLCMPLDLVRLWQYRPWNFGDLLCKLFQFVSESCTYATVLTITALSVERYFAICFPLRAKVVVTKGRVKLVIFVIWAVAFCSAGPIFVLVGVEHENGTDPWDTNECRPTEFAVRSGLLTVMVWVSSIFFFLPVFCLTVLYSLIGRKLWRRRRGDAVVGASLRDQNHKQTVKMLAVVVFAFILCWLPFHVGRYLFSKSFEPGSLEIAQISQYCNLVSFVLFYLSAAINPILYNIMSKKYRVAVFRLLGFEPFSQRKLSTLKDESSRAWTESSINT
Experiment: cell-based or functional assay

| Functional Assay EC50 (aequorin bioluminescence) [nM] | % activation at 10 µM relative to ghrelin [%] | Binder |
| --- | --- | --- |
| 31 | – | B1 |
| 17 | 97 | GSS(Octanoyl)FLSPEHQRVQQ [compound 13] |
| 38 | 102 | GS[Dap](Octanoyl)FLSPEHQRVQQ [compound 14] |

Molecular target: T1, human GHS receptor 1a
Experiment: cell-based or functional assay
Remark: another data set of the same source

| % activation at 10 µM relative to ghrelin [%] | Functional Assay EC50 (aequorin bioluminescence) [nM] | Binder |
| --- | --- | --- |
| 96 | 11.5 | B2 |
| 100 | 15 | B3 |
| 97 | 17 | GSS(Octanoyl)FLSPEHQRVQQ [compound 13] |
| 92 | 22 | B4 |

Molecular target: T1, human GHS receptor 1a
Experiment: competitive filter binding vs [35S]-MK-677, membranes of HEK 293-AEQ17 cells transfected with human GHS receptor
Procedure: (§1) Binding of [³⁵S]-MK-677 to crude membranes prepared from HEK 293-aequorin stable cell lines was performed as described in Chen et al., Bioorg. Med. Chem. Lett. 1996, 6, 2163-2169, and Howard et al., Science 1996, 273, 974-977. Prior to the binding assay, the HEK 293-AEQ17 cells (8×10⁵ cells plated 18 hours before transfection in a T75 flask) were transfected with 22 μg of human GHS receptor plasmid using 264 μg lipofectamine.

| IC50 [nM] | Binder |
| --- | --- |
| 0.42 | B1 |
| 9.6 | GSS(Octanoyl)FLSPEHQRVQQ [compound 13] |
| 8 | GS[Dap](Octanoyl)FLSPEHQRVQQ [compound 14] |

Molecular target: T1, human GHS receptor 1a
Experiment: as above
Remark: another data set of the same source
Procedure: as §1

| IC50 [nM] | Binder |
| --- | --- |
| 55 | B2 |
| 0.16 | B3 |
| 9.6 | GSS(Octanoyl)FLSPEHQRVQQ [compound 13] |
| 0.77 | B4 |
